These results are taken from patent US9952227B2, “Method for detecting bilirubin” (Research Foundation of the City University of New York, priority 2015, dated 2018).

“And” between values parts separate entries of the source, which are not always exact repeats. Equal entries are not always repeated. Where two headings read alike, the source gives them in different places.

The conditions of series [1]: reported value for reference fluorescent protein; cited from earlier work.
The conditions of series [2]: reference fluorescent protein; cited from earlier work.
The test system of a further series is HEK293 cells. Description: Expression of Chlopsid FP I in HEK293 cells, single and two-photon imaging. It is filed as cell-based. As for the experimental part:
Expression in Mammalian Cells: Chlopsid FP I was expressed in mammalian cells (HEK293) without the addition of bilirubin. […] The two-photon excitation was fairly flat from 700-1000 nm with a peak at 860 nm and an unusual dip at 840 nm.
Expression of Chlopsid FP I in HEK293 Cells: A pCS2+vector was used for cloning of Chlopsid FP I for expression in HEK293 cells (ATCC, USA) using Kpn-Sphl cloning sites. Plasmids were prepared by Genscript USA, Inc. The expression was driven in HEK293 cells (ATCC, USA) by CMV promotor. The HEK293 cell line was maintained in Dulbecco's Modified Eagle Medium (High Glucose) (DMEM) (Invitrogen, USA), supplemented with 10% fetal bovine serum (FBS) (Sigma-Aldrich, USA), in a 37° C. incubator with 5% CO2. Transient transfection was performed using 2 μg of DNA per 35 mm dish and 5 μg of Lipofectamine 2000 (Invitrogen, N.Y.). Cells were imaged on a custom-made 2-photon microscope using a Chameleon Ti-Sapphire laser (Coherent Inc, CA) and water immersion 20×/0.95 N.A. objective (Olympus, Japan). Images were taken using 850 nm laser light with power of 15 mW at the objective.

In a further series the test system is E. coli. Description: Fluorescence of expressed protein in E. coli upon addition of exogenous bilirubin. It is filed as cell-based. The text has this:
(§1) Hayashi and Toda reported that Anguilla japonica (heavily farmed in Japanese aquaculture and a historical staple of Japanese cuisine) was weakly green fluorescent. They purified a fluorescent protein from A. japonica muscle tissue and isolated and sequenced several peptide fragments. […] Then in 2013, Kumagai et al., published a full characterization of the fluorescent protein from A. japonica. […] The Kaupichthys hyoproroides and Kaupichthys n. sp. data was re-examined and found a single transcript in each of the two species' transcriptomes that encoded an FABP including the Gly-Pro-Pro insertion. […] These proteins, termed Chlopsid FP I and Chlopsid FP II, are orthologs of UnaG (FIG. 1). FIG. 1 depicts sequence alignment of fluorescent FABPs from eels with a non-fluorscent FABP from Kaupichthys hyoproroides (Chlopsid NFP) and human brain FABP-7. Areas of homology are identified with solid lines boxes. The GPP sequence motif is identified with a dotted lined box.
Protein Expression and Purification. Candidate ORFs were selected from eel transcriptome data containing an unusual sequence motif (Gly-Pro-Pro) on a loop between two beta sheets in the FABP sequence. […] Protein concentration was determined by A280 measurements, using calculated extinction coefficients of 15,300 M^−1 cm^−1 for Chlopsid FP I, and 16,600 M^−1 cm^−1 for Chlopsid FP II. […]

Another series deals with mammalian cells. The series is described as follows: Fluorescence of expressed protein in mammalian cells upon addition of exogenous bilirubin. It is filed as cell-based.
From the text: as §1

Series [3] is described as follows: Fluorescence quantum yield. It is filed as physicochemical. On the procedure: The fluorescence quantum yield of Chlopsid FP I was determined to be 0.47. […] These values are close to the reported quantum yield for UnaG of 0.51 (Table 1). Two prolines in the Gly-Pro-Pro sequence motif were mutated to glycine.
Series [4] can be described thus: Fluorescence excitation and emission spectra. It is filed as physicochemical. As for the experimental part: In Chlopsid FP I and Chlopsid FP II this amino acid is a histidine. This difference in amino acid sequence can potentially explain the fluorescence shift, due to an increase in the π conjugation of the system.
Fluorescence Spectroscopy: Fluorescence excitation and emission spectra were recorded using a F-7000 Hitachi Fluorescence Spectrometer.

B1: UnaG: bilirubin inducible fluorescent protein from Anguilla japonica, novel member of the FABP family (protein, UniProt P0DM59 1-139, looked up)
Bilirubin-inducible …: MVEKFVGTWKIADSHNFGEYLKAIGAPKELSDGGDATTPTLYISQKDGDKMTVKIENGPPTFLDTQVKFKLGEEFDEFPSDRRKGVKSVVNLVGEKLVYVQKWDGKETTYVREIKDGKLVVTLTMGDVVAVRSYRRATE
For the molecule B1, the Fluorescence quantum yield in series [1] is listed as 0.51. In series [2], the “Ex/Em maxima: emission maximum” value was 523 nm and 530 nm; the “Ex/Em maxima: excitation maximum” value is 489 nm and 498 nm.

B2: Chlopsid FP I: bilirubin-inducible fluorescent fatty acid-binding protein from Kaupichthys hyoproroides, SEQ ID NO: 1 (protein)
chain: MFEDFLGTWKCIDSQNFGAYLAAIGAPPVLSERADATRPTVHFNRDGDKLSLKVEHGPPPLKDVLLSFKLGEEFDEHPTDGRKCKTLVTFEGDKLLYLQKWDGKETVVVREIRDGNVVATLSHEGVVALRVYKKVAGPTALE
modifications: Kaupichthys hyoproroides
Turning to B2, in the series with HEK293 cells (HEK293), the Two-photon excitation dip stood at 840 nm. In addition, the Two-photon excitation peak in the series on HEK293 cells (HEK293, excitation fairly flat from 700-1000 nm) is recorded as 860 nm. In the series with HEK293 cells (HEK293, without the addition of bilirubin, single and two-photon imaging), the “Fluorescence of expressing cells” value is on record as “bright fluorescence”. For the same molecule, the “Fluorescence upon addition of exogenous bilirubin” value (“Fluorescence upon addition” for short) with E. coli is listed as “strong green fluorescence”. Also, the “Fluorescence upon addition” value with mammalian cells is “strong green fluorescence”. For the same molecule, the Fluorescence quantum yield in series [3] is recorded as 0.47. Also, in series [4], the “Ex/Em maxima: emission maximum” value was 527 nm and 524 nm; the “Ex/Em maxima: excitation maximum” value was 498 nm and 490 nm.

B3: Chlopsid FP II: bilirubin-inducible fluorescent fatty acid-binding protein from Kaupichthys n. sp., SEQ ID NO: 2 (protein)
chain: MFEDFLGTWECIDSQNFGAYLAAVGAPPVLSDRADATRPTVYFNRDGDKLSLKVEHGPPPLKDVILSFKLGEEFDEHPTDGRKCKTLVTFEGDKLLYLQKWDGKETVVVREIRDGNVVATLSHEGVVALRVYKKVAGPTA
modifications: Kaupichthys hyoproroides
Consider B3, for which, in the series with E. coli, the “Fluorescence upon addition” value is “strong green fluorescence”. For the same molecule, the “Fluorescence upon addition” value in the series on mammalian cells was “strong green fluorescence”. Further, in series [3], the Fluorescence quantum yield came to 0.37. In addition, in series [4], the “Ex/Em maxima: emission maximum” value is 527 nm and 524 nm; the “Ex/Em maxima: excitation maximum” value was 498 nm and 490 nm.
